{"source": "patent US10012655B2", "about": "“Method for quantitating total HMGB1 protein in biological samples” (INSTITUT PASTEUR, priority 2008, dated 2018)", "molecules": {"B1": {"name": "rh-HMGB1: recombinant human HMGB1 protein (R&D Systems) (protein, UniProt P09429 1-215, looked up)", "High mobility group protein B1": "MGKGDPKKPRGKMSSYAFFVQTCREEHKKKHPDASVNFSEFSKKCSERWKTMSAKEKGKFEDMAKADKARYEREMKTYIPPKGETKKKFKDPNAPKRPPSAFFLFCSEYRPKIKGEHPGLSIGDVAKKLGEMWNNTAADDKQPYEKKAAKLKEKYEKDIAAYRAKGKPDAAKKGVVKAEKSKKKKEEEEDEEDEEDEEEEEDEEDEDEEEDDDDE"}}, "key": {"iDCs": {"test_system": "iDCs", "test": "Cytokine and chemokine production by DCs (MAP/Luminex)", "format": "cell-based, human", "conditions": "iDCs 48 h with 1 or 10 μg/ml", "procedure": "(§1) FIG. 3 (a)-(e). aNK-dependent maturation of HIV-1-infected iDCs is mediated by HMGB1 and involves RAGE. (a) Left panel: iDCs were cultured for 24 h either alone or with aNK cells, in the presence of blocking anti-HMGB1 antibodies (10 μg/ml) or glycyrrhizin (10 μg/ml). The maturation status of DCs was determined by flow cytometry with CD86 and HLA-DR—specific antibodies. Right panel: same experiment, but performed with HIV-1 infected iDCs. Data represent mean±sd of at least three independent experiments, and statistical comparisons were made with the non parametric Mann-Whitney test. * p<0.05. (b) iDC (10^6 cells/ml) were cultured for 48 h with increasing concentrations (1-10 μg/ml) of rh-HMGB1. Cells were then stained with anti-CD86, -HLA-DR, -CD80, -CD83, DC-LAMP and -CD40 antibodies and analyzed by flow cytometry. (c) Influence of rh-HMGB1 on cytokine and chemokine production (determined by MAP) by DCs. iDCs (10^6 cells/ml) were incubated for 48 h in medium or in presence of rh-HMGB1 (1 or 10 μg/ml). As a positive control, iDCs were stimulated with LPS (DC0). […] (e) iDC, DC0, uninfected or HIV-1-infected iDC cocultured for 24 h with aNK cells, were incubated with rh-HMGB1 (1 μg/ml) and subsequently stained with anti-RAGE antibodies and analyzed by flow cytometry. […]"}, "RAGE": {"test_system": "RAGE", "test": "Surface expression of RAGE on DCs (flow cytometry)", "format": "cell-based, human", "conditions": "uninfected iDCs incubated with 1 μg/ml", "procedure": "as §1"}}, "data": [{"molecule": "B1", "values": [{"measurement": "release of the chemokines MCP1, MIP-1α, MIP-1β and IL-8", "setting": "iDCs", "value": "increased release"}, {"measurement": "RAGE surface expression", "setting": "RAGE", "value": "down-regulation of RAGE was observed"}]}]}
